This is an account of results in US20220073618A1 (NANJING GENSCRIPT BIOTECH, published 2022).

Assay [1] concerns the target T1, biotin-labeled PD-L1-Fc (human, UniProt Q9NZQ7 19-238, limits assumed, biotin-labeled (sites not given)).
T1 construct: not shown: Fc part
Description: flow cytometry: biotin-PD-L1-Fc binding to CHO cells expressing human PD-1 with titrated antibody; enhancement of PD-L1/PD-1 binding. The procedure:
(§1) In the FACS test, CHO cells expressing human PD-1 and parent cells as a negative control were washed 3 times with PBS. 2.5×10⁵ detection cells and 50 μl of 3-fold serial dilutions of purified antibody with an initial concentration of 300 nM were added to a 96-well plate. […] Then the cells were washed 3 times with PBS, 100 μl of iFluor647-labeled streptavidin (1 μg/ml) was added, and the cells were incubated at 4° C. for 45 min. Finally, the cells were washed 3 times with PBS, and the signal was read on FACS BD Calibur.

Assay [2] deals with T1, biotin-labeled PD-L1-Fc. Description: flow cytometry: biotin-PD-L1-Fc binding to CHO cells expressing human PD-1 with titrated antibody, fitted curve; enhancement. The procedure: as §1
The target in assay [3] is T2, human PD-L1 protein (human, UniProt Q9NZQ7 19-238, limits assumed). The assay is described as follows: ELISA on the antigen (human PD-L1); antibody untreated (0), after oxidative stress (AAPH, 24 h) or deamidation stress (pH 9.0, 48 h); curves not told apart.
T2 sequence (Q9NZQ7 19-238 limits assumed): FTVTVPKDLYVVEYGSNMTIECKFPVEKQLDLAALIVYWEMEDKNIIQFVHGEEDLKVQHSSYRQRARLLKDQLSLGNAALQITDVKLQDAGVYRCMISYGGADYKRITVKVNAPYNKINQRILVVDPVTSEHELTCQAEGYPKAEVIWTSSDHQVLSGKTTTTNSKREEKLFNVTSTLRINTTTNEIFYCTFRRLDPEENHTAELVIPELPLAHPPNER
The target of assay [4] is T2, human PD-L1 protein. Description: ELISA on human PD-L1 protein; antibody kept at 40 C for 0 (D0), 7 (D7) or 14 (D14) days. How it is done:
The antibody samples were treated separately at 40° C., and then centrifuged to remove the pellet. Then the amount of remaining antibody was evaluated by ELISA. (test after treatment at 40° C. for 7 days (D7) and 14 days (D14) separately; for each test, the untreated sample (D0) stored at −80° C. is used as a control) (FIG. 3)

Assay [5] deals with T1, biotin-labeled PD-L1-Fc. The assay is described as follows: ELISA: biotin-PD-L1-Fc binding to coated human PD-1 with titrated antibody; enhancement of PD-L1/PD-1 binding. How it is done:
(§2) The ELISA plate (Nunc) was coated with 100 μl/well of 0.5 μg/ml recombinant human PD-1 protein in PBS at 4° C. overnight. The plate was washed with PBS-T (0.05% Tween), and blocked with 200 μl/well of PBST containing 1% BSA at 37° C. for 0.5 hr. Then the blocking buffer was discarded, and 50 μl of 10 μg/ml purified antibody to be tested was added to the first test well. 3-fold serial dilutions were made, and a total of 11 test concentration gradients were given. […] The plate was washed 3 times with PBST, and incubated with 100 μl/well of Streptavidin-HRP (SA-HRP, GenScript) at 37° C. for 10 min. Finally, the plate was washed 5 times with PBST, and then a TMB developing solution (GenScript) was added and incubated at room temperature for 15 min in the dark. The reaction was terminated by adding 50 μl of 1M HCl stop solution (Sigma). The plate was read at 450 nm on a microplate reader.

The target in assay [6] is T1, biotin-labeled PD-L1-Fc. The assay is described as follows: ELISA: biotin-PD-L1-Fc binding to coated human PD-1 with titrated antibody, OD 450 nm, fitted curve; enhancement. The procedure:
as §2

Assay [7] addresses T3, monkey PD-L1 on cell surface (monkey).
T3 construct: whole, on cells; also called monkey PD-L1 cell line; CHO cells overexpressing monkey PD-L1
The assay is described as follows: flow cytometry on CHO cells expressing monkey PD-L1, fitted curve. The procedure:
(§3) CHO cells expressing human or monkey PD-L1 and parent cells as a negative control were washed 3 times with PBS. 2.5×10⁵ detection cells and 100 μl of 3-fold serial dilutions of purified antibody with an initial concentration of 300 nM were added to a 96-well plate and incubated at 4° C. for 1 hr. […] Finally, the cells were washed 3 times with PBS, and the signal was read on FACS BD Calibur.
Moreover, CHO cells overexpressing monkey PD-L1 were used to test the cross-recognition binding to monkey PD-L1 by the antibodies.

Assay [8] concerns the target T2, human PD-L1 protein. The assay is described as follows: ELISA on human PD-L1 protein; antibody treated for 20 min at 70 C. The procedure:
(§4) The antibody samples were treated for 20 min at various temperature gradients respectively, and then centrifuged to remove the pellet. Then the amount of remaining antibody was evaluated by ELISA. (The temperature gradient includes: room temperature, 30° C., 40° C., 50° C., 60° C., 70° C., […]) (FIG. 4)

The target of assay [9] is T4, PD-L1-HIS recombinant protein (human, UniProt Q9NZQ7 19-238, limits assumed).
T4 construct: not shown: His tag
T4 sequence (Q9NZQ7 19-238 limits assumed): as above
The assay is described as follows: SPR (Biacore 8K), antibody captured on chip, PD-L1-HIS analyte 2.5-80 nM, 1:1 binding model. How it is done:
The chip surface was equilibrated with HBS-EP buffer at a flow rate of 10 μl/min for 5 min, and then a 1:1 mixture of “NHS+EDC” was injected at a flow rate of 10 μl/min for 420 sec to activate the chip. The capture antibody (goat anti-murine IgG) diluted in 10 mM sodium acetate buffer was injected for about 420 sec at a flow rate of 10 μl/min for coupling, and finally ethanolamine was injected for 420 sec at a flow rate of 10 μl/min to block the surface.
Three pre-cycles were performed with the HBS-EP buffer as a sample to balance the chip to stabilize the baseline. The antibody diluted in HBS-EP buffer was injected for 30 sec at a flow rate of 10 μl/min (where the antibody-antigen binding signal was controlled to about 100 RU by adjusting the capture time between 0-5 min), and then the chip was equilibrated with the buffer for 1 min. The low-concentration antigen 2.5 nM PD-L1-HIS was injected at a flow rate of 30 μl/min for 240/300 seconds, to allow the antigen to bind to the antibody, and then the buffer was injected at a flow rate of 30 μl/min for 720/600 seconds for dissociation. 50 mM HCl were injected three times each for 15 s at a flow rate of 100 μl/min for regeneration, to complete one cycle. The antigen concentration was changed (such as 5 nM PD-L1-HIS) to carry out the cycle for measurement at a next gradient concentration until all gradient concentrations (2.5 nM, 5 nM, 10 nM, 20 nM, 40 nM, 80 nM PD-L1-HIS) and the replicate (such as 10 nM PD-L1-HIS) were tested.
The experimental data was double subtracted (minus the background values of the control channel and zero concentration), and fitted to the “1:1 binding” model in the Biacore 8K evaluation software. Biacore 8K was used to determine the affinity of the antibody to the PD-L1-HIS recombinant protein.

The target in assay [10] is T5, human PD-L1 on cell surface (human, UniProt Q9NZQ7 19-290).
T5 construct: whole, on cells; also called human PD-L1 cell line; CHO cells expressing human PD-L1
T5 sequence (Q9NZQ7 19-290): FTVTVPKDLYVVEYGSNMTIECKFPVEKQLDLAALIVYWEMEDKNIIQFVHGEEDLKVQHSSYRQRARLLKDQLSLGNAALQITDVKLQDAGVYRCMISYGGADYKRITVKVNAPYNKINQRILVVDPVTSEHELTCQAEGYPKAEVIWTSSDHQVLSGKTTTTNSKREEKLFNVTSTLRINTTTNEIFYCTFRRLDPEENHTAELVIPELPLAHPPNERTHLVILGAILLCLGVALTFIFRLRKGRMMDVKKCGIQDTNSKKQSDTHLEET
The assay is described as follows: flow cytometry on CHO cells expressing human PD-L1, fitted curve. How it is done:
as §3

In assay [11] the target is T2, human PD-L1 protein. Description: ELISA on human PD-L1 protein; antibody treated for 20 min (all overlapping curves). How it is done:
as §4

In assay [12] the target is T5, human PD-L1 on cell surface. Description: cell-based or functional assay.

T1 sequence (Q9NZQ7 19-238 limits assumed): as the sequence (Q9NZQ7 19-238 limits assumed) above

B1: AH02029 (antibody, human IgG1, V domains shown)
VH: QVQLQESGPGLVKPSQTLSLTCTVTGYSITSGYTWHWIRQHPGKGLEWIGYIHYSGSTKYNPSLKSRVSISRDTSKNQFSLKLSSVTAADTAVYYCARNSLFASWGQGTLVTVSS
VL: DIVLTQSPDSLAVSLGERATINCRASESVDTYGDSFMHWYQQKPGQPPKLLIYRASNLESGVPDRFSGSGSGTDFTLTISSLQAEDVAVYYCQQSNEAPYTFGGGTKLEIK
notes: also called mPD-L1Ab-5BM clone AH02029
Regarding B1, the EC50 came out at 38.7 nM with biotin-labeled PD-L1-Fc [1], 0.017 µg/mL in the assay with biotin-labeled PD-L1-Fc [5], 3.4 nM in assay [7] and 0.478 nM in assay [10]. In addition, the LogEC50 is 1.59 with biotin-labeled PD-L1-Fc [2], 1.23 in the assay with biotin-labeled PD-L1-Fc [6], 0.532 in assay [7] and -0.321 in [10]. In addition, the “EC50 (read off the curve)” value with human PD-L1 protein [3] is ~20 ng/mL; with human PD-L1 protein [4], ~10 ng/mL; with human PD-L1 protein [8], ~40 ng/mL; with human PD-L1 protein [11], ~10 ng/mL. For the same molecule, the Kd in assay [9] is 1.57 nM. Moreover, in [9], the koff was 0.000334 s⁻¹. Also, the kon in [9] came to 213000 M⁻¹ s⁻¹. The “Bottom (best-fit value) of IL-2 release, mixed lymphocyte reaction” value in assay [12] turned out to be 1350. Besides, in assay [12], the “EC50 (µg/ml) of IL-2 release, mixed lymphocyte reaction” value came to 0.0293 µg/mL. Also, the “LogEC50 (best-fit value) of IL-2 release, mixed lymphocyte reaction” value in [12] was -1.53. Further, the “Span (best-fit value) of IL-2 release, mixed lymphocyte reaction” value in assay [12] was 1020. Moreover, in assay [12], the “Top (best-fit value) of IL-2 release, mixed lymphocyte reaction” value turned out to be 2370.
